The results in this text go back to patent US20190352343A1 (AUCKLAND UNISERVICES, published 2019).

In test [1] the target is T1, Mol8 (Mobiluncus mulieris).
T1 construct: also called Mol8 construct
T1 chain: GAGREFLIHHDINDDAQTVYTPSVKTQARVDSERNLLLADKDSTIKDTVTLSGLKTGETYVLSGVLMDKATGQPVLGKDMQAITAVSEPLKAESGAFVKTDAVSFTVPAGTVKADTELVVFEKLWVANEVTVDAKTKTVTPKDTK
Briefly: SDS-PAGE of mixed Mol domains, ester bond ligation.

Test [2] addresses T2, Mol9 (Mobiluncus mulieris).
T2 construct: also called Mol9 construct
T2 chain: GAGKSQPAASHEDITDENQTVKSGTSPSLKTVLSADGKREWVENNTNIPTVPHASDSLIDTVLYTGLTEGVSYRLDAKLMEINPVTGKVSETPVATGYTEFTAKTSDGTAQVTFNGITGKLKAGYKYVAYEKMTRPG
Description: SDS-PAGE of mixed Mol domains, ester bond ligation.

B1: Mol10 (other)
chain: GAPDKPVPPPHEDPKDPNQTVVSEHNPGITTTLTDAQAAKGTDGKVISLTRDAQLKDVVRVTQTGLIEGAKYHVFSKLVNQANPDQVVSAGMQEFTATGDQLRSVTVKFTVPKETLQELAGSDPSAEFKLVAYEYLALDSDTDIVNKEATSEIEAVGFK
notes: also called Mol10 construct
With B1, the binding result in test [1] is listed as “no binding (tested: equimolar amounts, 24 h)”.

B2: Mol11 (other)
chain: GAGKTWAATHADPNDAGQTVTVVKAPKIGTTLKYGQSKTVWVADKVELTDTVEYFNLQPKTKYTLSGNLMGGTSAESLSDTGVKATTEFTTPAAANGAQTVSGTAVVKFTVPREVLERNEKLVAYEYLTIDGNPVASHEDPKDENQTVTSKKP
notes: also called Mol11 domain construct
For B2, the binding result in test [2] is recorded as “no binding (tested: equimolar amounts, 24 h)”; in test [1] it was “no binding (tested: equimolar amounts, 24 h)”.
